Consider seven molecules from article PMC12273708, “Biochemical and Biophysical Divergences between Two L‑Asparaginase II Variants: Potential for Using EcA2-K12 as a Biosimilar” (Biochemistry, 2025).

Residue numbers refer to the chain shown, from its start. Names may count otherwise.

Data set [1] addresses L-asparaginase II from the K12 strain (EcA2-K12) (Escherichia coli, strain K12 (strain printed; the species name is lost from the text shown)). In words: SEC; analytical size exclusion chromatography, TSKgel G2000SWXL, 50 uM enzyme in 25 mM sodium phosphate pH 7.4, 100 mM sodium chloride, 0.35 mL/min; hydrodynamic radius against globular standards. For orientation: In gel filtration, larger molecules generally elute earlier.

Assay in data set [2]: as above
Data set [3] has as its target T1, EcA2-K12 (L-asparaginase II, K12 strain) (Escherichia coli, UniProt P00805).
T1 construct: gene ansB; mature protein (precursor residues 23 to 348) behind a pelB leader, pET25b, secreted from E. coli BL21(DE3), purified from medium; no tag mentioned; homotetramer with four active sites
T1 sequence (P00805 23-348): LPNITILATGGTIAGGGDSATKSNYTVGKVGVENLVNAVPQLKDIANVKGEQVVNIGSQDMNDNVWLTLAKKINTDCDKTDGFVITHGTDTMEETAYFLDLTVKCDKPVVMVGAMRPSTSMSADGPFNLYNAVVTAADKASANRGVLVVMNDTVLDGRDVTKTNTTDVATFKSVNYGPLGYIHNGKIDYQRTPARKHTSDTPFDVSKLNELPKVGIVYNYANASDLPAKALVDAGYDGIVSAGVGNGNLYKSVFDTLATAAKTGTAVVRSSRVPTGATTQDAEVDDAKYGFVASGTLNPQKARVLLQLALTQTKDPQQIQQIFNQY
In words: intrinsic tryptophan fluorescence titration (spectral center of mass), Hill fit. The format is binding.

In data set [4] the target is T2, EcA2-4M (L-asparaginase II, BL21(DE3) / Elspar sequence) (Escherichia coli, UniProt P00805, N86D/S274T/T285N/V49A).
T2 construct: gene ansB; mature protein (precursor residues 23 to 348) behind a pelB leader, pET25b, secreted from E. coli BL21(DE3), purified from medium; no tag mentioned; homotetramer with four active sites
T2 sequence (P00805 23-348 V49A/N86D/S274T/T285N): T1 sequence (P00805 23-348) with V27A, N64D, S252T, T263N
The description is as above. The format is binding.

Data set [5] concerns the target L-asparaginase II variant EcA2-4M (sequence of the BL21(DE3) strain and of Elspar) (Escherichia coli, strain BL21(DE3) (strain printed; the species name is lost from the text shown)). In words: SEC; analytical size exclusion chromatography, TSKgel G2000SWXL, 50 uM enzyme in 25 mM sodium phosphate pH 7.4, 100 mM sodium chloride, 0.35 mL/min; hydrodynamic radius against globular standards.

Substrate in data set [6]: NC(=O)CC[C@H](N)C(=O)O
Briefly: 1D 1H NMR progress curves, Lambert W fit of integrated Michaelis-Menten equation. The note with it: 640 μM L-Gln, 2.5 μM enzyme, 100 mM sodium phosphate pH 8.0, 10% D2O, 25 °C. The format is biochemical, Escherichia coli. From the text: (§1) 1D 1H NMR progress curves, Lambert W fit of integrated Michaelis-Menten equation on EcA2-K12 (L-asparaginase II, K12 strain)

Substrate in data set [7]: NC(=O)C[C@H](N)C(=O)O
The description is as above. The note with it: 160 μM L-Asn, 2.1 nM enzyme, 100 mM sodium phosphate pH 8.0, 10% D2O, 25 °C. The format is biochemical, Escherichia coli.
Excerpt: as §1

Substrate in data set [8]: NC(=O)CC[C@H](N)C(=O)O
The description is as above. The format is biochemical, Escherichia coli. The note with it: 640 μM L-Gln, 1.3 μM enzyme, 100 mM sodium phosphate pH 8.0, 10% D2O, 25 °C. From the text:
(§2) 1D 1H NMR progress curves, Lambert W fit of integrated Michaelis-Menten equation on EcA2-4M (L-asparaginase II, BL21(DE3) / Elspar sequence)

Substrate in data set [9]: NC(=O)C[C@H](N)C(=O)O
Described as above. The note with it: 160 μM L-Asn, 1.0 nM enzyme, 100 mM sodium phosphate pH 8.0, 10% D2O, 25 °C. The format is biochemical, Escherichia coli.
Excerpt: as §2

What is called stoichiometry N is a count of units in the complex or per binding partner. With “L-asparaginase II from the K12 strain (EcA2-K12) (enzyme)”, in data set [1], the stoichiometry N was 4.
Regarding “L-asparaginase II from the K12 strain (EcA2-K12)”, the “prepeak percentage of the total area (species of larger hydrodynamic radii)” value in [2] stood at 13% for EcA2-K12.
What is called Kd is a measure of binding affinity in units of concentration. Regarding `N[C@@H](CC(=O)O)C(=O)O` [L-Asp], the results for the Kd in data set [3] and in [4] were 211 ± 52 µM and 66 ± 14 µM, respectively.
For the molecule “L-asparaginase II variant EcA2-4M (sequence of the BL21(DE3) strain and of Elspar) (enzyme)”, the stoichiometry N in [5] turned out to be 4.
For the molecule “L-asparaginase II variant EcA2-4M (sequence of the BL21(DE3) strain and of Elspar)”, the “prepeak percentage of the total area (species of larger hydrodynamic radii)” value in data set [2] is listed as “approximately 5%”.

B1: EcA2-K12 (L-asparaginase II, K12 strain) (Escherichia coli K-12) (protein)
chain: T1 sequence (P00805 23-348)
notes: mature protein (precursor residues 23 to 348) behind a pelB leader, pET25b, secreted from E. coli BL21(DE3), purified from medium; no tag mentioned; homotetramer with four active sites
For orientation: Km means the substrate concentration at which the rate is half of its maximum. Turning to B1, the results for the Km in [6] and in data set [7] were 2301 ± 75 µM and 8 ± 3 µM, respectively.

B2: EcA2-4M (L-asparaginase II, BL21(DE3) / Elspar sequence) (Escherichia coli K-12; N86D/S274T/T285N/V49A) (protein)
chain: T1 sequence (P00805 23-348) with V27A, N64D, S252T, T263N
notes: as for B1
Turning to B2, the figures for the Km in data set [8] and in [9] were 3111 ± 159 µM and 11 ± 5 µM, respectively.
